Substitutions are numbered along the chain they refer to.
B1: Hu5F9-G4 (humanized anti-CD47 monoclonal antibody) (antibody, human IgG4, V domains shown)
VH: QVQLVQSGAEVKKPGASVKVSCKASGYTFTNYNMHWVRQAPGQRLEWMGTIYPGNDDTSYNQKFKDRVTITADTSASTAYMELSSLRSEDTAVYYCARGGYRAMDYWGQGTLVTVSS
VL: DIVMTQSPLSLPVTPGEPASISCRSSQSIVYSNGNTYLGWYLQKPGQSPQLLIYKVSNRFSGVPDRFSGSGSGTDFTLKISRVEAEDVGVYYCFQGSHVPYTFGQGTKLEIK
notes: Prepared after US 9017675B2; labelled IgG4; also called Hu5F9-IgG4; hu5F9-IgG4
B2: hS4D12-IgG4 (humanized S4D12) (antibody, V domains shown)
VH: QVQLVQSGAEVKKPGASVKVSCKASGYTFTNYWMHWVRQRPGQGLEWIGVIAPSDNYTNYNQKFQGRVTMTVDTSTSTVYMELSSLRSEDTAVYYCTKGGKYSMDYWGQGTTVTVSS
VL: B1 VL with S7T, Y31H, G39E, Y101F
B3: hS2C3-IgG4 (humanized S2C3) (antibody, V domains shown)
VH: QVQLVQSGAEVKKPGASVKVSCKASGYTFTDYYMHWVRQAPGQRLEWMGWINPSSGNTKYAQKFQDRVTMTRDTSTSTVYMELSSLRSEDTAVYYCARREEDYFDYWGQGTLVTVSS
VL: DIVMTQSPDSLAVSLGERATINCKSSQSLLYPSNKKNYLTWYQQKPGQPPKLLIYWASTRESGVPDRFSGSGSGTDFTLTISSLQAEDVAVYYCQEYYAYPLSFGQGTKLEIK
B4: H11E5+L25B8 (affinity-matured variant of hS2C3) (antibody, V domains shown)
VH: B3 VH with N52Y, Q65K
VL: B3 VL with P32S, E96Q, Y97F, L102I
notes: Humanized monoclonal antibody
B5: H10C7+L25B8 (affinity-matured variant of hS2C3) (antibody, V domains shown)
VH: B3 VH with N52Y, S54G, K59R, A61S, Q65K
VL: B3 VL with P32S, E96Q, Y97F, L102I
notes: Humanized monoclonal antibody
B6: S2H2-IgG4 (mouse-human chimeric antibody, human IgG4-kappa) (antibody, V domains shown)
VH: QVQLQQPGAEVVKPGASVKMSCKASGYTLSSYWMHWVKQRPGQGLEWIGTIDRSDSYISYNQKFKGKATLTVDTSSGTVYMQLNSLTSEDSAVYYCTRGGPYGSKMMDNWGQGTSVTVSS
VL: DIQMNQSPSSLSASLGDTITITCHASQNINVWLSWYQQKPGNIPKLLIYKASNLHTGVPSRFSGSGSGTGFTLTISSLQPEDIATYYCQQGQSYPLTFGTGTKLELKR
notes: also called 人-鼠嵌合单抗S2H2
B7: S2C3-IgG4 (mouse-human chimeric antibody, human IgG4-kappa) (antibody, V domains shown)
VH: QIQLQQSGPELVKPGASVKISCKASGYTFTDYYMHWVKQRPGQGLEWIGWINPSSGNTKYAQKFQDKATLTVATSSSTAYMQLSSLTSEDTAVYFCARREEDYFDYWGQGTLVTVSS
VL: DIVMSQSPSSLAVSVGEKVTMSCKSSQSLLYPSNKKNYLTWYQQKPGQSPKLLIYWASTRESGVPDRFTGSGSGTDFTLTISSVKAEDLAVYYCQEYYAYPLSFGAGTKLEIKR
notes: also called 人-鼠嵌合单抗S2C3
B8: S4D12-IgG4 (mouse-human chimeric antibody, human IgG4-kappa) (antibody, V domains shown)
VH: QVQLQQPGAELVKPGASVKMSCKASGYTFTNYWMHWVKQRPGQGLEWIGVIAPSDNYTNYNQKFQGKATLTVDTSSSTAYMQLSSLTSEDSAVYYCTKGGKYSMDYWGQGTSVTVSS
VL: DVLMTQTPLSLPVSLGDQASISCRSSQSIVHSNGNTYLEWYLQKPGQSPKLLIYKVSNRFSGVPDRFSGSGSGTDFTLKISRVEAEDLGVYYCFQGSHVPFTFGSGTKLEIKR
notes: also called 人-鼠嵌合单抗S4D12
B9: S2H2 (mouse scFv clone displayed on phage) (scFv)
scFv: QVQLQQPGAEVVKPGASVKMSCKASGYTLSSYWMHWVKQRPGQGLEWIGTIDRSDSYISYNQKFKGKATLTVDTSSGTVYMQLNSLTSEDSAVYYCTRGGPYGSKMMDNWGQGTSVTVSSGGGGSGGGGSGGGGSDIQMNQSPSSLSASLGDTITITCHASQNINVWLSWYQQKPGNIPKLLIYKASNLHTGVPSRFSGSGSGTGFTLTISSLQPEDIATYYCQQGQSYPLTFGTGTKLELK
notes: also called 鼠单链抗体S2H2; 鼠单抗S2H2
B10: S2C3 (mouse scFv clone displayed on phage) (scFv)
scFv: QIQLQQSGPELVKPGASVKISCKASGYTFTDYYMHWVKQRPGQGLEWIGWINPSSGNTKYAQKFQDKATLTVATSSSTAYMQLSSLTSEDTAVYFCARREEDYFDYWGQGTLVTVSSGGGGSGGGGSGGGGSDIVMSQSPSSLAVSVGEKVTMSCKSSQSLLYPSNKKNYLTWYQQKPGQSPKLLIYWASTRESGVPDRFTGSGSGTDFTLTISSVKAEDLAVYYCQEYYAYPLSFGAGTKLEIK
notes: also called 鼠单链抗体S2C3; 鼠单抗S2C3
B11: S4D12 (mouse scFv clone displayed on phage) (scFv)
scFv: QVQLQQPGAELVKPGASVKMSCKASGYTFTNYWMHWVKQRPGQGLEWIGVIAPSDNYTNYNQKFQGKATLTVDTSSSTAYMQLSSLTSEDSAVYYCTKGGKYSMDYWGQGTSVTVSSGGGGSGGGGSGGGGSDVLMTQTPLSLPVSLGDQASISCRSSQSIVHSNGNTYLEWYLQKPGQSPKLLIYKVSNRFSGVPDRFSGSGSGTDFTLKISRVEAEDLGVYYCFQGSHVPFTFGSGTKLEIK
notes: also called 鼠单链抗体S4D12; 鼠单抗S4D12

These binders were tested against T1, hCD47-mFc (human CD47 extracellular region D1 fused to mouse IgG2a Fc) (human (homo sapiens)) (assay: competition ELISA by the method of Example 3 (hCD47-mFc coated, hCD172a-D1M1-His as competitor)).
T1 construct: no linker is stated

Binder	IC50
B1	4.16 nM
B2	2.68 nM
B3	3.36 nM

These binders were tested against T2, huCD47-D1-his (recombinant human CD47 extracellular region D1 with C-terminal His tag) (human (homo sapiens), UniProt Q08722 19-141) (assay: SPR BIAcore, by the method of Example 3 (antibody captured, huCD47-D1-his analyte)).
T2 construct: Expressed in HEK293 cells; analyte in the Biacore measurements and antigen of the phage panning; also called huCD47-his; hCD47; not shown: His tag added at the C-terminus

Binder	Kd	koff	kon
B4	0.807 nM	0.00096 s⁻¹	1.19e+06 M⁻¹ s⁻¹
B3	9.55 nM	0.0103 s⁻¹	1.08e+06 M⁻¹ s⁻¹
B5	1.11 nM	0.00115 s⁻¹	1.03e+06 M⁻¹ s⁻¹

Each binder was assayed against T2, huCD47-D1-his (recombinant human CD47 …) (assay: SPR Biacore X100, antibody captured via anti-human Fc on CM5, huCD47-D1-his as analyte, 25 C).

Binder	Kd	koff	kon
B6	9.71 nM	0.00696 s⁻¹	717000 M⁻¹ s⁻¹
B7	25.1 nM	0.0222 s⁻¹	886000 M⁻¹ s⁻¹
B8	10.1 nM	0.0142 s⁻¹	1.41e+06 M⁻¹ s⁻¹

The binders below were run against T1, hCD47-mFc (human CD47 extracellular …) (assay: competition ELISA: hCD47-mFc coated, fixed hCD172a-D1M1-His as competitor, antibody titrated).

Binder	IC50
B6	2 to 5 nM
B7	2 to 5 nM

Each binder was assayed against T2, huCD47-D1-his (recombinant human CD47 …) (assay: solid-phase phage panning on huCD47-D1-his, three rounds).

Binder	binding result
B9	binds
B10	binds
B11	binds

Target: T1, hCD47-mFc (human CD47 extracellular …)
Experiment: competition ELISA by the method of Example 3 (hCD47-mFc coated, hCD172a-D1M1-His as competitor)
Remark: another data set of the same source

Binder	IC50
B2	< 5 nM
B4	< 5 nM
B3	< 5 nM
B5	< 5 nM

The binders below were run against T2, huCD47-D1-his (recombinant human CD47 …) (assay: SPR BIAcore, against hS2C3 as reference).

Binder	fold improvement of affinity over hS2C3
B4	10 fold

Target: T2, huCD47-D1-his (recombinant human CD47 …)
Experiment: SPR BIAcore, by the method of Example 3 (antibody captured, huCD47-D1-his analyte)
Remark: another data set of the same source

Binder	Kd	koff	kon
B2	9.6 nM	0.0118 s⁻¹	1.22e+06 M⁻¹ s⁻¹
B7	18.5 nM	0.0205 s⁻¹	1.11e+06 M⁻¹ s⁻¹
B3	10.1 nM	0.011 s⁻¹	1.09e+06 M⁻¹ s⁻¹
B8	8.56 nM	0.011 s⁻¹	1.28e+06 M⁻¹ s⁻¹

Target: T1, hCD47-mFc (human CD47 extracellular …)
Experiment: competition ELISA: hCD47-mFc coated, fixed hCD172a-D1M1-His as competitor, antibody titrated
Remark: another data set of the same source

Binder	IC50
B1	9.61 nM
B6	2.08 nM
B7	5.19 nM
B8	3.89 nM

Target: T1, hCD47-mFc (human CD47 extracellular …)
Experiment: competition ELISA by the method of Example 3 (hCD47-mFc coated, hCD172a-D1M1-His as competitor)
Remark: another data set of the same source

Binder	IC50
B4	4.13 nM
B3	4.13 nM
B5	4.51 nM
